# Experimental data taken from patent publication US20050282740A1 (BETH ISRAEL DEACONESS MEDICAL CENTER, published 2005).
# Where no end group is shown, it is not given here. Fluorescein = N-terminal fluorescein label
# Biological target: T1, GST (UniProt P08515 1-218 = GST)
# T1 construct: Control protein; also called control GST
# Test: fluorescence anisotropy
# T1 sequence (P08515 whole entry): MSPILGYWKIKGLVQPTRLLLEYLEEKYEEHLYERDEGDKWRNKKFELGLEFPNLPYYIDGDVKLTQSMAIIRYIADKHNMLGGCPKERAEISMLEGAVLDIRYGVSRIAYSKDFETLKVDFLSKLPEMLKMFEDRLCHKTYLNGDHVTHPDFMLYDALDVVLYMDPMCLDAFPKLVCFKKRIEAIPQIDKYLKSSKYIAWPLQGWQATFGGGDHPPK
binder,measurement,value
Fluorescein-EQPLTPVTDL (also called nonphosphorylated Cdc25 Peptide),binding result,no binding
